PMC5336481 (Nature structural & molecular biology, 2017)

Legend:
[1] = target: full-length C. elegans TRPML1 (CUP-5), WT (C. elegans); test: cryo-EM structure
[2] = target: T1, human TRPML1 protein (SDS-PAGE, data not shown) (human), Q9GZU1; test: reducing SDS-PAGE; conditions: remark: other sources report otherwise
T1 chain: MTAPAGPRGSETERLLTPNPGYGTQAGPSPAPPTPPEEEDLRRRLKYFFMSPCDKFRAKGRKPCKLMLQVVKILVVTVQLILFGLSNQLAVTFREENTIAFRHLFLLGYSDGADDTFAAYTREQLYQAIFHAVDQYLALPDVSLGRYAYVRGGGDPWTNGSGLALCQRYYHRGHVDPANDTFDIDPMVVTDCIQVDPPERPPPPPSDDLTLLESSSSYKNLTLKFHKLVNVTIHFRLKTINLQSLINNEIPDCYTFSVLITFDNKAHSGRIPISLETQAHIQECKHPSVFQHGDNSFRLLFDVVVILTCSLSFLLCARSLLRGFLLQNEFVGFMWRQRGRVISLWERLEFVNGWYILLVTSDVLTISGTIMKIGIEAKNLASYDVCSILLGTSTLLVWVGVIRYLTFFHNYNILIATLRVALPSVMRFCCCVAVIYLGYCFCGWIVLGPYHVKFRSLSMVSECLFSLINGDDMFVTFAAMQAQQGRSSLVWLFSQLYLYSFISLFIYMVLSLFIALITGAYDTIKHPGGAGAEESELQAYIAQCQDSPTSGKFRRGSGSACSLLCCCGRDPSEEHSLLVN

crystal structure = target: the molecule itself; test: crystal structure

For “full-length C. elegans TRPML1 (CUP-5), WT (natural protein)”, the stoichiometry N [1] was 4.

B1: human TRPML1 protein (SDS-PAGE, data not shown), Q9GZU1 1-580 (natural protein)
chain: MTAPAGPRGSETERLLTPNPGYGTQAGPSPAPPTPPEEEDLRRRLKYFFMSPCDKFRAKGRKPCKLMLQVVKILVVTVQLILFGLSNQLAVTFREENTIAFRHLFLLGYSDGADDTFAAYTREQLYQAIFHAVDQYLALPDVSLGRYAYVRGGGDPWTNGSGLALCQRYYHRGHVDPANDTFDIDPMVVTDCIQVDPPERPPPPPSDDLTLLESSSSYKNLTLKFHKLVNVTIHFRLKTINLQSLINNEIPDCYTFSVLITFDNKAHSGRIPISLETQAHIQECKHPSVFQHGDNSFRLLFDVVVILTCSLSFLLCARSLLRGFLLQNEFVGFMWRQRGRVISLWERLEFVNGWYILLVTSDVLTISGTIMKIGIEAKNLASYDVCSILLGTSTLLVWVGVIRYLTFFHNYNILIATLRVALPSVMRFCCCVAVIYLGYCFCGWIVLGPYHVKFRSLSMVSECLFSLINGDDMFVTFAAMQAQQGRSSLVWLFSQLYLYSFISLFIYMVLSLFIALITGAYDTIKHPGGAGAEESELQAYIAQCQDSPTSGKFRRGSGSACSLLCCCGRDPSEEHSLLVN
For B1, the stoichiometry N [2] was 4.

B2: human TRPML1 I-II linker (G84-S296) (domain or fragment, UniProt Q9GZU1 84-296, looked up)
chain: GLSNQLAVTFREENTIAFRHLFLLGYSDGADDTFAAYTREQLYQAIFHAVDQYLALPDVSLGRYAYVRGGGDPWTNGSGLALCQRYYHRGHVDPANDTFDIDPMVVTDCIQVDPPERPPPPPSDDLTLLESSSSYKNLTLKFHKLVNVTIHFRLKTINLQSLINNEIPDCYTFSVLITFDNKAHSGRIPISLETQAHIQECKHPSVFQHGDNS
In the case of B2, the “stoichiometry N” value (crystal structure) is reported as 4.
